From patent publication US20250101098A1 (R P SCHERER TECHNOLOGIES, published 2025)

T1: cynomolgus monkey nectin-4 protein expressed on the surface of HEK 293 cells (cynomolgus monkey, UniProt A0A2K5WES1 32-510)
T1 construct: whole, on cells
T1 sequence: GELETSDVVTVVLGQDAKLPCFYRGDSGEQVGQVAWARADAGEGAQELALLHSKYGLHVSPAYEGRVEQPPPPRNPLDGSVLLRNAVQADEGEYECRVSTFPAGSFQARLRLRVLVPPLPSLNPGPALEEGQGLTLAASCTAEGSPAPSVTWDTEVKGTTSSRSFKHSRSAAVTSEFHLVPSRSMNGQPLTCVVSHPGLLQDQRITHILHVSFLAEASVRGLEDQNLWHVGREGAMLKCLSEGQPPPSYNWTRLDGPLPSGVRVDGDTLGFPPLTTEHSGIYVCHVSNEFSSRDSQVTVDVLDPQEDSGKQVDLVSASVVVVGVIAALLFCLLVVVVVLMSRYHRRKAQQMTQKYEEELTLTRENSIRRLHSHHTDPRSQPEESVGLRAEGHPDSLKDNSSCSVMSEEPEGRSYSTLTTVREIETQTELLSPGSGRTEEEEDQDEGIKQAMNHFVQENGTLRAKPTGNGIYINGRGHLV

T2: rat nectin-4 protein expressed on the surface of HEK 293 cells (rat, UniProt D3ZET1 31-509)
T2 construct: whole, on cells
T2 sequence: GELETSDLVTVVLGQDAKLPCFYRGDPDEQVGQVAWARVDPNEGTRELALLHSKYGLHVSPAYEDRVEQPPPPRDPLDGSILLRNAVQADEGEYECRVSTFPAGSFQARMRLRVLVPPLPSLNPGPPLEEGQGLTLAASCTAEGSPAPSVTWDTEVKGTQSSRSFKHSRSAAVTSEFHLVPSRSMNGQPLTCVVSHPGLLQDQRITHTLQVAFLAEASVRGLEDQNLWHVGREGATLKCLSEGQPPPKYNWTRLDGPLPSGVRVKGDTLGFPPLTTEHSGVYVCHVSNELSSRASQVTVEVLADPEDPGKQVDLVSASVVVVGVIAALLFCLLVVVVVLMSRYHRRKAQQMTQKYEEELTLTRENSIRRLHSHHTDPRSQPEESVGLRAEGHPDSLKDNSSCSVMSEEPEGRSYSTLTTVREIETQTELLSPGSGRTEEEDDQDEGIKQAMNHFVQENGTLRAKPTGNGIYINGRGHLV

T3: mouse nectin-4 protein expressed on the surface of HEK 293 cells (mouse, UniProt Q8R007 31-508)
T3 construct: whole, on cells
T3 sequence (looked up): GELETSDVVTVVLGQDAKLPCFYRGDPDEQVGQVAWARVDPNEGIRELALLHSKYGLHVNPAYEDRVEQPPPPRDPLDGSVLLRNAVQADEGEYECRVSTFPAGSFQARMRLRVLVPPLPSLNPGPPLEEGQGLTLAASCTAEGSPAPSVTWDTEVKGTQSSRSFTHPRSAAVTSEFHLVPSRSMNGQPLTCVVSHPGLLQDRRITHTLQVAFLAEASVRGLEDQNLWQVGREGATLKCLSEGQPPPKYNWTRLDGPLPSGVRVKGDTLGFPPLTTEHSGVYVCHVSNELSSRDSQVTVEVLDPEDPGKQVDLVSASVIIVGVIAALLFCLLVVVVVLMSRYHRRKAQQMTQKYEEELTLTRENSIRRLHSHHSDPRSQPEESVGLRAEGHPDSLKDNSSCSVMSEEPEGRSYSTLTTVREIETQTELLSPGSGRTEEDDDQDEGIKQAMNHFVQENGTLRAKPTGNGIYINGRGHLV

T4: human nectin-4 protein expressed on the surface of cells (human, UniProt Q96NY8 32-510)
T4 sequence: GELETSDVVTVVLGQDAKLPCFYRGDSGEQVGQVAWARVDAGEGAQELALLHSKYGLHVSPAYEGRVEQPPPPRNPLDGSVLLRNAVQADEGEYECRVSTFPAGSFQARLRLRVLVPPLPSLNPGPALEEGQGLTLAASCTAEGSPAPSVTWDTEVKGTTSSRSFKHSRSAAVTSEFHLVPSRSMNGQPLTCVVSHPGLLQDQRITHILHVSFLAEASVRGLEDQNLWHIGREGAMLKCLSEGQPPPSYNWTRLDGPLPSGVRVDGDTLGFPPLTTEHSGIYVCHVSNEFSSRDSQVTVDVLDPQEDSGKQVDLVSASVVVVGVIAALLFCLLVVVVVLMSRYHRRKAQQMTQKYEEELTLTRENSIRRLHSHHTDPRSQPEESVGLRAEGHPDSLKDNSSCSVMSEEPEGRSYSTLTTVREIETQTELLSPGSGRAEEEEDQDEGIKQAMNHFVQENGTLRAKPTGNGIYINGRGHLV

T5: recombinant human Nectin-4-His protein (human, UniProt Q96NY8 32-349)
T5 construct: Rescreening antigen and bought ELISA antigen are treated as one molecule; also called human Nectin-4-His tagged; Ag1; not shown: His tag
T5 sequence: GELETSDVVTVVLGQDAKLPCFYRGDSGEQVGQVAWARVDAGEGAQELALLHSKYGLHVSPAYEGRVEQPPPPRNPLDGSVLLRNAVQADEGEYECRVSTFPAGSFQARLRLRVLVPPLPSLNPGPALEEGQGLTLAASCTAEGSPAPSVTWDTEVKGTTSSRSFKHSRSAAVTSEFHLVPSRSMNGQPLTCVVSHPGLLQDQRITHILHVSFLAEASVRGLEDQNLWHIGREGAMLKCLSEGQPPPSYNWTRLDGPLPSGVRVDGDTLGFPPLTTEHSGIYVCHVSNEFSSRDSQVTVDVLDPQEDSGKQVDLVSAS


Experiments:
[1] = biological target: T6, human nectin-4 protein expressed on the surface of cells (human, UniProt Q96NY8 32-510); test: cell-based or functional assay
[2] = biological target: T6, human nectin-4 protein expressed on the …; test: flow cytometry, HEK 293 cells overexpressing the target
Experimental: (§1) Human embryonic kidney (HEK) 293 cells overexpressing human, cynomolgus monkey, rat, or mouse nectin-4 protein were produced. Cells were lifted with Versene to preserve cell surface proteins and were resuspended at 10e6/mL in PBS+2% FBS. 100 μl was added to a flow tube to test […]. Primary antibodies were diluted to […] and 10 μL was added for a total of 1 μg/test. Primary antibodies (or ADCs) were incubated with cells for 1 h on ice. Then, cells were washed 1× in 2 mL PBS+2% FBS and secondary antibody was added for detection. AF488-conjugated anti-human antibody from Jackson Immunoresearch, diluted according to the manufacturer's instructions+50% glycerol, was used at 1 μL/test-diluted to ⅕ the concentration in PBS+2% FBS and 5 μL were added per tube. The secondary reagent was incubated with the cells for 30 min, then cells were washed 2× in PBS+2% FBS and analyzed by flow cytometry on a BD FacsCanto instrument equipped with FACSDiva software.
(§2) Lead clones were tested for binding to human, cynomolgus monkey, rat, or mouse nectin-4 protein expressed on the surface of HEK 293 cells. Enfortumab was included as a positive control and an anti-FITC reactive antibody was included as a negative control.

[3] = biological target: T1, cynomolgus monkey nectin-4 protein …; test: as above
Experimental: as §1, §2

[4] = biological target: T2, rat nectin-4 protein expressed on the …; test: as above
Experimental: as §1, §2

[5] = biological target: T3, mouse nectin-4 protein expressed on the …; test: as above
Experimental: as §1, §2

[6] = biological target: T4, human nectin-4 protein expressed on the …; test: cell-based or functional assay; remark: listed apart in the source
[7] = biological target: T4, human nectin-4 protein expressed on the …; test: flow cytometry, HEK 293 cells overexpressing the target
Experimental: as §1, §2

[8] = biological target: T5, recombinant human Nectin-4-His protein; test: ELISA, recombinant antibody on coated antigen
[9] = biological target: T5, recombinant human Nectin-4-His protein; test: ELISA, coated antigen
[10] = biological target: T4, human nectin-4 protein expressed on the …; test: cell-based or functional assay; remark: listed apart in the source

Binder | IC50, in vitro potency, HEK Cells + Nectin-4 [1] [nM] | Flow data [2] | Flow data [3] | Flow data [4] | Flow data [5] | IC50, in vitro potency, HEK Cells + Nectin-4 [6] [nM] | Flow data [7] | EC50 [8] [nM] | EC50 [9] [nM] | Cell kill IC50, HekNectin4 [10] [nM] | Cell kill IC50, MDA-MB468 [10] [nM] | Cell kill IC50, SKBR3 [10] [nM]
Enfortumab (antibody, V domains shown) VH: EVQLVESGGGLVQPGGSLRLSCAASGFTFSSYNMNWVRQAPGKGLEWVSYISSSSSTIYYADSVKGRFTISRDNAKNSLSLQMNSLRDEDTAVYYCARAYYYGMDVWGQGTTVTVSS VL: DIQMTQSPSSVSASVGDRVTITCRASQGISGWLAWYQQKPGKAPKFLIYAASTLQSGVPSRFSGSGSGTDFTLTISSLQPEDFATYYCQQANSFPPTFGGGTKVEIKR | 0.685 | 17100 | 20000 | 45500 | 3220 | – | – | – | – | – | – | –
Nectin-4 Hybridoma 6C8H/6C8L (recombinant chimeric antibody) (antibody, V domains shown) VH: QVQLKQSGPGLVQPSQSLSITCTVSGFSLSTYGVHWVRQSPGKGLEWLGVIWSGGSTDYNAAFISRLTISKDNSKSQIFFKMNSLQADDTAIYYCARMMSWYFDVWGTGTTVTVSS VL: DIVMTQSQKFMSTSVGDRVSVTCKASQNVVTNVAWYQQKPGQSPKALIYSASYRYSGVPDRFTGSGSGTDFTLTISNVQSEDLAEYFCQQYNSYPLTFGAGTKLELK | – | – | 11400 | 8920 | 194 | 0.573 | 10200 | 0.239 | – | – | – | –
Nectin-4 3C12H/3C12L (recombinant chimeric antibody) (antibody, V domains shown) VH: QVQLKQSGPGLVQPSQSLSITCTVSGFSLTTYGVHWVRQSPGKGLEWLGVIWSGGNTDYNAAFISRLSISKDNSKSQVFFKMNSLQADDTAIYYCARMTHWYFDVWGTGTTVTVSS VL: DIVMTQSQKFMSTTVGDRVSITCKASQNVVTAVAWYQQKPGQSPKLLIYSASNRYTGVPDRFTGSGSGTDFTLTISYMQSEDLADYFCQQYSSYPLTFGAGTKLELK | – | – | 10600 | 5060 | 328 | 0.919 | 8370 | 0.282 | – | – | – | –
Nectin-4 7 E8H/7 E8L (recombinant chimeric antibody) (antibody, V domains shown) VH: QVQLKQSGPGLVQPSQSLSITCTVSGFSLATYGVHWVRQSPGKGLEWLGVIWSGGSTDYNAAFISRLSISKDNSKSQVFFKMNSLQADDTAIYYCARNSHWYFDVWGTGTTVTVSS VL: DIVMTQSQKFMSTSVGDRVSVTCKASQNVVTNVAWYQQKPGQSPKALIYSASYRYSGVPDRFTGSGSGTDFTLTISHVQSEDLAEYFCHQYNNYPYTFGGGTKLEIK | – | – | 10400 | 5970 | 279 | 0.89 | 9200 | 0.361 | – | – | – | –
Nectin-4 12E11H/12E11L (recombinant chimeric antibody) (antibody, V domains shown, also called parental 12E11 clone) VH: QVQLKQSGPGLVQPSQSLSITCTVSGFSLTTYGVHWVRQSPGKGLEWLGVIWSGGSTDCNGAFISRLSIIKDNSKSQVFFKMNSLQADDTAIYYCARMTHWYFDVWGTGTTVTVSS VL: DIVMTQSQKFMSTTVGDRVSITCKASQNVNTAVAWYQQKPGQSPKLLIYSASYRYTGVPDRFTGSGSGTDFTLTISNMQSEDLADYFCQQYSNYPLTFGAGTKLELK | – | – | 10400 | 1900 | 230 | 0.987 | 8620 | 0.252 | – | – | – | –
Nectin-4 5D9H/5D9L (recombinant chimeric antibody) (antibody, V domains shown, also called Nectin-4 5D9 chimeric mAb) VH: QVQLKQSGPGLVQPSQSLSITCTVSGFSLTNYGVHWVRQSPGKGLEWLGVIWSGGSTDYNAAFVSRLSISRDNSKSQVFFKMNSLQADDTAIYYCARSGKWYYFDYWGQGTTLTVSS VL: DIQMTQSPASLSVSVGETVTITCRASENIYSNLAWYQQKQGKSPQLLVYAATNLADGVPSRFSGSGSGTQYSLKINSLQSEDFGSYYCQHFWGTPTFGGGTKLEIK | – | – | 12600 | 2140 | 189 | 0.446 | 11200 | 0.192 | 0.191 | 0.207 | 1.31 | 8.47
